The source of these data is the DeepSol protein solubility set.

The series can be described thus: soluble on expression in E. coli; label from the status in PepcDB or PDB records.
Consider “MSLTNKWIGALGLLLSGQLMASELVIESWRADDKALWEQKIIPAFEAANPGIKVKFNPVPNVNYTPTLWENLKAGKAGDLITCRPFDDSLALFKAGHLAEITEMAGMENFPSFAQAPWQTDSGAQTFCVPMASVIHGFFYNKKIFNELGLSVPQTREQFFTVLDKVKADGRYIPLSMSGSESWVASELGYQNIGPNYWKGEDGRLALINGQEHLDDSQYVKVFEELARWRAYLGEDGELRDYGTSNELFTSGKAALYVAGSWEIAPFTDKVDFGVMRPPVAKQGDGCFFTDHTDIGMGMNPASKNPQAAMAFLQWLTTPEFAELYTNSLPGFFSLSNHFFDVTNPAAREMMEWRDQCDSTIRVATQILSRGQPKLGDELAEVSQAVLVGKMTPTAAAERLEQGLKRWYAPHQTRKAKEQECQCVEPISPTTRLNTLPVVDIAPVVASDPVPPTEATILSEEGGSHHHHHH”, for which the “soluble on expression in E. coli” value is recorded as “soluble”.
The same measure for “MSLTPEIPPKNFTPHLPEDYDARISGVLPYYSSFHQETINLVKSLPSSPKIWMDTGCGTGSLINKAIEEFLDTKFLLLDPSESMLEQAKGKLSFYPDGKVEFLKASSTQEFSQELEEKPDVITAIQCHHYLSLEDRSRATRVCYNLLKEGGIYITFENIRPLTEEGVAVGKRYWGKFQSLHGRKEKEIQTHLERFDTEYFPITVEEHLKLLRDTGFRTVELFWYSYMQAGFYCIKEGHHHHHH”: “soluble”; for “MSLTQRIDFQTDPSRYRHWRVAYDGEIANLYMDVDEQGGLFPGYELKLNSYDLGVDIELADIVQRMRFEHPEVKVVVMQSGKDRVFCAGANIRMLGGASHAHKVNFCKFTNETRNTYEAAEADSGQKYIAAVKGACAGGGYELALACNYIMLTNDSSSSVALPEVPLLAVLPGTGGLTRVTDKRKVRRDLADVFCSVEEGVRGQRAVDWRLVDEIAPNSKFDEVVQERAREFASASVKPSGLTGIALTPLDRRFAEDGSVTYSTVEVVVEREAGRATLTISGPTDAAPDTVDALQAQGAEAWILRAARELDDAILHLRLNERRIGTLVIQTQGDGAAVAAHEALLLENRDHWLANEILQHWKRVLKRVDMTSRSLVAIVEHGSCFAGPLAELLWAVDRSYMMLEEGHHHHHH”: “not soluble”; for “MSLTRCVLEGMKTKHALRHHMKLHKGIKEYECKECHRRFAQKVNMLKHCKRHTGIKDFMCELCGKTFSERNTMETHKLIHTVGKQWTCSVCDKKYVTEYMLQKHVQLTHDKVEAQSCQLCGTKVSTRASMSRHMRRKHPEVLAVRIDEGHHHHHH”: “not soluble”.
The same measure for “MSLTRNRTVALAIIDMQNDFVLPGAPACVEGAMGTVPVIAGLLAKARAEGWMVLHVVRAHRADGSDAEKSREHLFLEGGGLCVAGTPGAEIVAGLEPASGETVLVKTRFSAFMGTECDMLLRRRGVDTLLVSGTQYPNCIRGTAVDAFALDYDVVVVTDACSARTPGVAESNINDMRAMGITCVPLTALDDVLARRPVPSGPPPREGHHHHHH”: “soluble”.
As for “MSLTSVKEFPTIKAVRSFVIGGVGSGGDYHNVEGGHWLIDSPISTPCSRWEEYRKSRTSWGINVLGSFFVEIEASDGTVGYATGFGGPPACWLTHQHFERFLIGADPRRTNHLFEQMYRASMFYGRKGLPIAVISVIDLALWDLLGKIRKEPVYQMIGGATKDRLNFYCTGPEPTAAREMGFWGAKVPLPYCPDEGHVGMKKNIEFLRKHREAVGPDFPLMVDCYMSLNVSYTIELAEKCKDLDINWWEECLSPDDTDGFEQIKRAHPTLKFTTGEHEYSRFGFRKLVEGRNLDIIQPDVMWLGGLTELLRVSAMAAAYDIPVVPHASGPYSYHFVMSQPNTPFQEYLANSPDGKSVLPVFGDLFLDEIIPSKGFLTPKDLDQPGFGLTLNPAARAKMIPGEFWVNPAPLKALTSGAPAEEKKEGAVEAVVNKVQELTTSEGHHHHHH”, the “soluble on expression in E. coli” value is given as “soluble”.
The same measure for “MSLTSYSYRQSSATSSFGGLGGGSVRFGPGVAFRAPSIHGGSGGRGVSVSSARFVSSSSSGAYGGGYGGVLTASDGLLAGNEKLTMQNLNDRLASYLDKVRALEAANGELEVKIRDWYQKQGPGPSRDYSHYYTTIQDLRDKILGATIENSRIVLQIDNARLAADDFRTKFETEQALRMSVEADINGLRRVLDELTLARTDLEMQIEGLKEELAYLKKNHEEEISTLRGQVGGQVSVEVDSAPGTDLAKILSDMRSQYEVMAEQNRKDAEAWFTSRTEELNREVAGHTEQLQMSRSEVTDLRRTLQGLEIELQSQLSMKAALEDTLAETEARFGAQLAHIQALISGIEAQLGDVRADSERQNQEYQRLMDIKSRLEQEIATYRSLLEGQEDHYNNLSASKEGHHHHHH”: “not soluble”; for “MSLTTGAAVAFVDTLHDAAVRDLGWLLASPSMLTAVPGAPLARPWPDATGQAAVEAWLAALDAQPGPLHRALDGFRPTRLGRYAECLLEYFLTHGPSLRLVAANLPLRSNGRTLGEVDFLVDTPDGRRLHWEMAVKCYLCAPVRDGASLADFVGPNLVDRFDRKRSRLLDHQLRMGEHDGFARLGYGAPADAQMFIKGWLFHPYGAPVPPVSVEIAPDHPRGFWLTHGQWPAWAAAQRDGAAWSVLPRLAWLAPRRAVAGAGVEPEPLASALELPAVLATRQTPDMIAIHEKGGDGTWRETARGFVVPDDWPARAQAFAAQDHEGHHHHHH”: “soluble”.
The result for “MSLTTLTTALKAGPEAPAILHRCRELVAPALAEAVGGMHPWMREMADYALGRGAAGGAPAAHSQGKGVRQALAVLGAEAAGGPAEAGVPAAVAVELVHTFSLLHDDIMDGDAMRRGRPALWKAYGTGPAVLAGDALFALAVQTLTTASAPGAAHRLSAALGDLVRGQADDLLFAHRPWTGPEAVSVAEYEAMAEHKTGSLLGCALALGAHLAGAPEETAAVLDRTGRHLGVAFQIVDDLLGIWGDPAVTGKPVHGDLRQGKKTFPVLAALATPSGSALEGLLTARDDTAVVRAAAVVEQAGGRSAALREARRHLTVAHGLLASVQPAPRPAADLRTLLSALSRRTIEGHHHHHH” reads “soluble”; that for “MSLTTMAEHFLTLLVVPAIKKDYGSQEDFTQVWNTTMKGLKCCGFTNYTDFEDSPYFKENSAFPPFCCNDNVTNTANETCTKQKAHDQKVEGCFNQLLYDIRTNAVTVGEGHHHHHH”, “not soluble”.
Turning to “MSLTTVMSGVTTLMRAPIGSIRESEGGRDFIRNVFEESVQIMRVLGAPVKENITEEHMKTMDKISYNMKSSMQRDMEKGSSVEGTHLQGYLLDVAKQFSIEAPLLGAVYQNLKVYEEMTLNRSAIELDEGHHHHHH”, the “soluble on expression in E. coli” value is recorded as “soluble”.
“MSLTVLILRCIMVKSTTRKSAKSDRRRYNRIARFYDLFETPMELMNFRKWRKMLFDLIKAEKGLVLEIGAGTGKNIPHYPSNVVALDISEKMLERAVRRAKESGKKVDFLLADAENLPFRSNSFDVVFTTFVFCSVDDPVRGLREAFRVLKKGGRAYFLEHMLPKSRFLHPLFNLLNPIFRAFGPEINRRTDENIQRAGFQIVKEYMLFGSVFRLIVAEKPLDSVDEASGYSLKRSESSDSSNFRRFIGQSLLPLRLTQLLREGHHHHHH”: the “soluble on expression in E. coli” value is on record as “not soluble”.
Regarding “MSLTWVSVEAKIDYELDPTVLFHLTEENAGDRFYYKKNDNKTSFFGYHAITRFKNDFENKQSIFREWQKYKSDIELIHPSSDKHHLKICGGFQFSMHKSGDEWREFGINHFILPEVLITMENGVSYITYTVKAEQFEIEQFKALIAHLTQNTIDSEFEIGNIKRIEDIYKDEWRDLVKDTIDVLDEHKKIVLARKRLVMFDKNINIPYILQKASQGEHNSYLFVLESQDSIFFSQTPEQLMEVNNGILSTKAVAGTIKRTHQDEVDKENIQAFLNDDKNLNEHRFVVESILNDIAPYVRDITFNETPQILTNDHLYHLYTKIKGQLENDSYIGLLDNLHPTPALGGYPKAEAIEYIEQNEFGTRGLYGAPVGYIDMNDDCEFIVAIRSMLIKKNQATLFAGCGIVKNSDADSEVEETAVKFNPMMKALGVEEYEGHHHHHH”, the “soluble on expression in E. coli” value is listed as “not soluble”.
The result for “MSLVDIHSHIIPGIDDGSNSLETTLNMMSIAKEAGVTKMVATSHYYRGKFENSISVIEKKANELNYTLKEKGVDIDVIPGQEVFIDNYTLKDYKEGIIGTINNTDYMLVEFDMMSLGENAIDTLYELQIKGIKPIIAHPERYTYIQKDIYKINELMDENIYFQVNAGSIEGLFGKTVQKTALKLVEEGVISFIASDAHSAGKRCPGYEKALHDLTKIDKTLAEKFIKNSNLLLENEKIENKVRKLKKKKTFFSFLKEGHHHHHH” reads “soluble”.
The same measure for “MSLVEKPVVIKFGGTSVRYAFEEALELVAKLHENMKIIVVVSALAGVTDCLLRLAKGDKSALLEIDEIHEELSQELNVQLEHLIHQLKKTINSKSSFPSEKAFIDEIASFGERFSAKLFSEGLKILGITARPVDSKDVLFVKGEFGNAEVEFKKSAQGVDVLYRMLRRGIVPVVTGYYGNLNGFRATFGRGGSDYSATSIASLVNAKAVLIMSDVEGIYTADPKLVPPARLIHYISYKEAKTAAKLGMKVLHPRAIDPVEGKIPVILGKTRDLKFGTLISHESQGIPIVTHKLLENHAEISVVSVKTNIPLPYEVYEEGDLYFKIKTSKDQFLEVLRDVHRRVVENENLHSSHDGELWTWVEGHHHHHH”: “soluble”; for “MSLVKDIYSESIQIQIAASSMLSENITNATQMVMQCLLGGNKVIACGVSRSYANAQFLVSNLLNRYDLVRPSFPSVLLSLESAVGSSLVFEQPPEELYCHQFNASAKSGDLLIAFAPLGTEKIVLNIISHAVSKEVNVIVLTGSNNDAIQGILADKDLEISIPATKESRILENHLFVINALCELVDQTLFPSAEGGSHHHHHH”: “soluble”.
The result for “MSLVKTYAFGFPKLGEKREFKRLLENYWKGKISQEELIKGMEELNLWRANLYRENVEIIPSNELSYYDFMLDTTVMVGAIPSRFGEYRGLDTYFEMARGKNALELTKWFNTNYHYLVPELEGENFKLLINRPLEDYKFFKEKGINTVPHVIGLFTFLKLSKAPKRVEEEGLPVIILEKLDTKERLEKFTKALLPVYKELLESLKNEGVNRVHFEEPALVTDLEDYDWEILNEIYSELSKVGVDLGILTYYDSVSDYDKFVNLPVKALHFDLVSNEENLKNIKEKGFPEDKELIAGIINGRQPWRANLREKVKLLEELLKVSANLVVSNSCPLYHLPVTVEPEDELPEGLKERLSFAKEKLREIRLIKEALEGKEEALREVESSEKVMTAVFAQNPEVRRRLASLSEKDFQRELPYKERDKIQRDILKLPLFPTTTIGSFPQTEDVRKMRTAYRTGKISEEEYKNFIKQKIKYAIEVQEDIGLDVLVHGEFERSDMVEYFAIKLDGIATTKHGWVLSYGSRVYRPPIIYGDVSRPAPMTLEEITYAQSLTNKPVKGMLTGPVTILNWSYYREDVPKREIAYQIALALLDEVKDLENAGIKVIQIDEPAFREGAPLKKRDWPEYFDWAVKAFRLASRAKPETQIHTHMCYSEFNEIIEYIYQMDFDVISIEASRSKGEIIEVFEKFKGWDRQIGIGVYDIHSPAIPTKEEMKAIMLRAMKVLPKELLWVNPDCGLKTRRWEEVIPALRNMVDMAKELREEVGVKVEGHHHHHH” reads “soluble”; that for “MSLVLLYTPKQKTKNVQTITADILDLDYQGLGVAKINGKTWFIENALPHEKVECRILEDKRQYGHAIVKKWRVKSPERLEPKCAHFMRCGGCQGQHIPIEMQRKAKESALFKRLSKLQSEPISFQPMICGDAWAYRRRVRLSLWFNPSTKQIEMGFRQKNTNDLIPVQSCEVAEPAINYLLPKLTALLEKFSAPKQLGHIELVAADNGVAMLLRYTKNLAEIDRTLLLKFAEQEKLMLFLQSDKGIEQIYGDAPYYQFSDGIKLHFDIRDFIQVNSALNEPMVNTALDWLELSQQDCVLDLFCGMGNFTLPLAKRVKSAVGIEGVFEMVQKAAQNAERNQIKNIEFFQADLDQSFVEQPWANQSFNKILLDPPRSGAAFALNALCELKAEKILYVSCNPATLVRDAEILCNFGYKIEKSAVIDMFPHTGHLESITLFTTKEGHHHHHH”, “soluble”.
